Results as given in US20260242448A1 (INSTITUTE OF MICROBIOLOGY CHINESE ACADEMY OF SCIENCES, published 2026).

Columns and labels:
[1] = target: T1, SARS-CoV-2 (BA.5) Spike RBD (SARS-CoV-2 BA.5 strain); experiment: ELISA on plate-coated RBD (1 µg/mL), HRP anti-human Fc detection, OD450
T1 construct: domain: RBD; also called BA.5 RBD

[2] = target: T2, RBD of the S protein of the BA.1.1 strain (SARS-CoV-2 BA.1.1 strain); experiment: as above
T2 construct: domain: RBD; also called BA.1.1 RBD

[3] = target: T3, S protein of the SARS-CoV-2 BA.4/5 strains on pseudo-virus (SARS-CoV-2 BA.4/5 strain); experiment: cell-based or functional assay
[4] = target: T4, S protein of the SARS-CoV-2 BA.2.75 strain on pseudo-virus (SARS-CoV-2 BA.2.75 strain); experiment: cell-based or functional assay
[5] = target: T5, S protein of the SARS-CoV-2 XBB.1.5 strain on pseudo-virus (SARS-CoV-2 XBB.1.5 strain); experiment: cell-based or functional assay
[6] = target: T6, S protein of the SARS-CoV-2 XBB strain on pseudo-virus (SARS-CoV-2 XBB strain); experiment: cell-based or functional assay
[7] = target: S protein of the SARS-CoV-2 BA.2 strain on pseudo-virus (SARS-CoV-2 BA.2 strain); experiment: cell-based or functional assay
[8] = target: T7, S protein of the SARS-CoV-2 BQ.1.1 strain on pseudo-virus (SARS-CoV-2 BQ.1.1 strain); experiment: cell-based or functional assay
[9] = target: S protein of the SARS-CoV-2 BA.3 strain on pseudo-virus (SARS-CoV-2 BA.3 strain); experiment: cell-based or functional assay
[10] = target: S protein of the SARS-CoV-2 BA.1.1 strain on pseudo-virus (SARS-CoV-2 BA.1.1 strain); experiment: cell-based or functional assay
[11] = target: S protein of the SARS-CoV-2 XBB.1.16 strain on pseudo-virus (SARS-CoV-2 XBB.1.16 strain); experiment: cell-based or functional assay
[12] = target: T8, S protein of the SARS-CoV-2 BA.1 strain on pseudo-virus (SARS-CoV-2 BA.1 strain); experiment: cell-based or functional assay
[13] = target: T9, S protein of the SARS-CoV-2 BF.7 strain on pseudo-virus (SARS-CoV-2 BF.7 strain); experiment: cell-based or functional assay
[14] = target: T10, S protein of the SARS-CoV-2 BQ.1 strain on pseudo-virus (SARS-CoV-2 BQ.1 strain); experiment: cell-based or functional assay
[15] = target: T3, S protein of the SARS-CoV-2 BA.4/5 …; experiment: cell-based or functional assay; remark: listed apart in the source
[16] = target: T4, S protein of the SARS-CoV-2 BA.2.75 …; experiment: cell-based or functional assay; remark: listed apart in the source
[17] = target: T5, S protein of the SARS-CoV-2 XBB.1.5 …; experiment: cell-based or functional assay; remark: listed apart in the source
[18] = target: T6, S protein of the SARS-CoV-2 XBB strain …; experiment: cell-based or functional assay; remark: listed apart in the source
[19] = target: T7, S protein of the SARS-CoV-2 BQ.1.1 …; experiment: cell-based or functional assay; remark: listed apart in the source
[20] = target: T8, S protein of the SARS-CoV-2 BA.1 strain …; experiment: cell-based or functional assay; remark: listed apart in the source
[21] = target: T9, S protein of the SARS-CoV-2 BF.7 strain …; experiment: cell-based or functional assay; remark: listed apart in the source
[22] = target: S protein of the SARS-CoV-2 Delta strain on pseudo-virus (SARS-CoV-2 Delta strain); experiment: cell-based or functional assay
[23] = target: T10, S protein of the SARS-CoV-2 BQ.1 strain …; experiment: cell-based or functional assay; remark: listed apart in the source
[24] = target: T11, RBD of the S protein of the BA.2.12.1 strain (SARS-CoV-2 BA.2.12.1 strain); experiment: ELISA on plate-coated RBD (1 µg/mL), HRP anti-human Fc detection, OD450
T11 construct: domain: RBD; also called BA.2.12.1 RBD

Row | Binder | EC50 [1] | EC50 [2] | Neutralization Effects (IC50) against SARS-CoV-2 pseudo-viruses [3] | Neutralization Effects (IC50) against SARS-CoV-2 pseudo-viruses [4] | Neutralization Effects (IC50) against SARS-CoV-2 pseudo-viruses [5] | Neutralization Effects (IC50) against SARS-CoV-2 pseudo-viruses [6] | Neutralization Effects (IC50) against SARS-CoV-2 pseudo-viruses [7] | Neutralization Effects (IC50) against SARS-CoV-2 pseudo-viruses [8] | Neutralization Effects (IC50) against SARS-CoV-2 pseudo-viruses [9] | Neutralization Effects (IC50) against SARS-CoV-2 pseudo-viruses [10] | Neutralization Effects (IC50) against SARS-CoV-2 pseudo-viruses [11] | Neutralization Effects (IC50) against SARS-CoV-2 pseudo-viruses [12] | Neutralization Effects (IC50) against SARS-CoV-2 pseudo-viruses [13] | Neutralization Effects (IC50) against SARS-CoV-2 pseudo-viruses [14] | Neutralization activity (IC50) against pseudo-virus [15] | Neutralization activity (IC50) against pseudo-virus [16] | Neutralization activity (IC50) against pseudo-virus [17] | Neutralization activity (IC50) against pseudo-virus [18] | Neutralization activity (IC50) against pseudo-virus [19] | Neutralization activity (IC50) against pseudo-virus [20] | other results
1 | monoclonal antibody CoV56 (antibody, V domains shown, also called monoclonal antibody 56; 56IgG) VH: EVQLVESGGGVVQPGGSLRLSCAVSGFTFDDYAMHWVRQAPGKGLDWVSLISGDGSYTYYADSVKGRFTISRDSSKNSLYLQMNSLRTEDTALYYCAKAQTPTLWWLQDAFDIWGQGTMVTVSS VL: not shown | 0.167 nM | 0.0454 nM | 7.53 µg/mL | 58.8 µg/mL | 11.8 µg/mL | 15.9 µg/mL | 8.32 µg/mL | 15.9 µg/mL | 18.5 µg/mL | 10.8 µg/mL | 21.7 µg/mL | 14.8 µg/mL | 11.7 µg/mL | 19.6 µg/mL | > 2 µg/mL | > 2 µg/mL | > 2 µg/mL | > 2 µg/mL | > 2 µg/mL | > 2 µg/mL | Neutralization activity (IC50) against pseudo-virus [21]: > 2 µg/mL; Neutralization activity (IC50) against pseudo-virus [22]: > 2 µg/mL; Neutralization activity (IC50) against pseudo-virus [23]: > 2 µg/mL; EC50 [24]: 0.0839 nM
2 | monoclonal antibody L4.65 (antibody, V domains shown, also called monoclonal antibody 65; 65IgG) VH: QITLKESGPTLVKPTQTLTLTCTFSGFSLSTSGVGVAWIRQPPGKALEWLALIYWDNDKRSSPSLNNRLTITKDTSKNQVVLTMTNMDPEDTATYYCAHFFSHYDSSNYYYGSWFDPWGQGTLVTVSS VL: EIVLTQSPGTLSLSPGERATLSCRASQSFDSRYLGWYQQKSGQAPRLLIYGASSRATGIPDRFSGSGSGTDFTLTISRLEPEDFAVYYCQQFGDSPFTFGQGTKLEIKR | 0.105 nM | 0.00592 nM | 0.000377 µg/mL | 0.00194 µg/mL | 0.0137 µg/mL | 0.00335 µg/mL | 0.00039 µg/mL | 4.58 µg/mL | 0.00044 µg/mL | 0.00028 µg/mL | 0.0103 µg/mL | 0.000394 µg/mL | 0.000446 µg/mL | 2.09 µg/mL | 0.00138 µg/mL | 0.0112 µg/mL | 0.0541 µg/mL | 0.0214 µg/mL | > 2 µg/mL | 0.00135 µg/mL | Neutralization activity (IC50) against pseudo-virus [21]: 0.00212 µg/mL; Neutralization activity (IC50) against pseudo-virus [22]: 0.00252 µg/mL; Neutralization activity (IC50) against pseudo-virus [23]: > 2 µg/mL; EC50 [24]: 0.0641 nM
